# Experimental data published in article doi:10.1101/2020.07.09.174003 (bioRxiv, 2020).
# B1: LDB-4 nanobody, yeast two-hybrid prey (VHH)
# VHH: EVQLQASGGGFVQPGGSLRLSCAASGDTSYLYSMGWFRQAPGKEREFVSAISWWWNLTQYYADSVKGRFTISRDNSKNTVYLQMNSLRAEDTATYYCAWSIYFPPGNDYNGYHYWGQGTQVTVSS
# B2: LDB-6 nanobody, yeast two-hybrid prey (VHH)
# VHH: EVQLQASGGGFVQPGGSLRLSCAASGFFSNWSDMGWFRQAPGKEREFVSAISFWADGTEYYADSVKGRFTISRDNSKNTVYLQMNSLRAEDTATYYCAWYGPVNGFYMFDYWGQGTQVTVSS
# B3: LDB-7 nanobody, yeast two-hybrid prey (VHH)
# VHH: EVQLQASGGGFVQPGGSLRLSCAASGSTSDFESMGWFRQAPGKEREFVSAISSWFTNPPYYADSVKGRFTISRDNSKNTVYLQMNSLRAEDTATYYCAHRSIWYHPTYWGQGTQVTVSS
# Key:
# [1] = target: Deinococcus radiodurans phytochrome (DrBphP) photosensory module, biliverdin-bound, with C-terminal AviTag and HisTag (Deinococcus radiodurans); assay: SEC
# [2] = target: Rhodopseudomonas palustris BphP1 (RpBphP1), mammalian two-hybrid fusion (Rhodopseudomonas palustris); assay: two-hybrid
# [3] = target: DrBphP photosensory module, biliverdin-bound, yeast two-hybrid bait (Deinococcus radiodurans (entry strain …, UniProt Q9RZA4, biliverdin-bound)); assay: two-hybrid
# Chain of DrBphP photosensory module, biliverdin-bound, yeast two-hybrid bait (Deinococcus radiodurans (Q9RZA4 whole entry, looked up, tested part not stated): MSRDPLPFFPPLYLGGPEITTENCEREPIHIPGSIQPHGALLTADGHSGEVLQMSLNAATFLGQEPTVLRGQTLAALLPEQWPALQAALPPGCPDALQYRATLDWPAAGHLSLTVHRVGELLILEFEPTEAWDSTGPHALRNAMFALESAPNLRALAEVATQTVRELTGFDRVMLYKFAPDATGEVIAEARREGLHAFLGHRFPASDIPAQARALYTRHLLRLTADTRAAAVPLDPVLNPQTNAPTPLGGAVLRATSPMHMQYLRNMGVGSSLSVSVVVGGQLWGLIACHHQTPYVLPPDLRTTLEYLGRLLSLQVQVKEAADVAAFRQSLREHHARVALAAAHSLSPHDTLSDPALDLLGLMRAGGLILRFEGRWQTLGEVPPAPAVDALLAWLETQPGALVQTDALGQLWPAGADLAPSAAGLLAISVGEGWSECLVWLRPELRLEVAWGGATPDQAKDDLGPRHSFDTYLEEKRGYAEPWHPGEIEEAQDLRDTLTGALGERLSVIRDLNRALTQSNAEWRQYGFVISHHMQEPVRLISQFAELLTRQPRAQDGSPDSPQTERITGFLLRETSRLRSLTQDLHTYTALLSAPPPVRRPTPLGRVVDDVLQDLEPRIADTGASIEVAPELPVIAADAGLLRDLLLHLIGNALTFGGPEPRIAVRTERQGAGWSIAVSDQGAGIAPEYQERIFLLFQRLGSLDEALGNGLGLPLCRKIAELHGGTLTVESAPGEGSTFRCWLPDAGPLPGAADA
Molecule,"fold increase of luciferase expression, 775-nm light over dark [2]",binding result [3],other results
"Deinococcus radiodurans phytochrome (DrBphP) photosensory module, biliverdin-bound, with C-terminal AviTag and HisTag (domain or fragment)",,,stoichiometry N [1]: 2
"Q-PAS1, a truncated form of PpsR2, mammalian two-hybrid fusion (domain or fragment)",2.02 fold,,
"PpsR2, mammalian two-hybrid fusion (natural protein)",2.95 fold,,
B1,,binds,
B2,,binds,
B3,,binds,
